Assay results from patent US20180318355A1, “METHODS AND COMPOSITIONS FOR IMPROVED TISSUE REGENERATION BY SUPPRESION OF INTERFERIN-GAMMA AND TUMOR NECROSIS FACTOR-ALPHA” (Alfred E. Mann Institute for Biomedical Eng. at the …, priority 2011, published 2018).
“Also recorded” adds a separate entry of the source. Where a SMILES comes first, the peptide text is derived from it. The star is where a group is joined. Cbz = O=C(OCc1ccccc1)*; CH2F = FC*

Columns and labels:
[1] = system: Fas, caspase 8, caspase 3; experiment: Western blot of Fas, cleaved caspase 8 and cleaved caspase 3 in BMMSCs; assay type: cell-based, mouse; conditions: for cleaved caspase 3 in IFN-γ/TNF-α-treated BMMSCs / cleaved caspase 8 in IFN-γ/TNF-α-treated BMMSCs: siRNA or inhibitor treatment before IFN-γ/TNF-α
Procedure: (§1) Western blot analysis. Total protein was extracted using M-PER mammalian protein extraction reagent (Thermo, Rockford, Ill.). Nuclear protein was obtained using NE-PER nuclear and cytoplasmic extraction reagent (Thermo). Protein was applied and separated on 4-12% NuPAGE gel (Invitrogen) and transferred to Immobilon™-P membranes (Millipore). The membranes were blocked with 5% non-fat dry milk and 0.1% tween-20 for 1 hour, followed by incubation with the primary antibodies (1:20¬1000 dilution) at 4° C. overnight. Horseradish peroxidase-conjugated IgG (Santa Cruz Biosciences; 1:10,000) was used to treat the membranes for 1 hour, and enhanced with a SuperSignal® West Pico Chemiluminescent Substrate (Thermo). The bands were detected on BIOMAX MR films (Kodak, Rochester, N.Y.). Each membrane was also stripped using a stripping buffer (Thermo) and reprobed with anti-β-actin antibody to quantify the amount of loaded protein.
(§2) SiRNAs for Fas, TNFR2, IKK, FLIP and XIAP were used to treat the BMMSCs according to the manufacture's instruction, and IFN-γ and TNF-α were added for 24 hrs. Inhibitors for internalization (Latrunculin A, 0.2 μM), pan caspase (Z-VAD (OMe)-FMK, 50 μM), caspase 8 ([…], 20 μM) and caspase 3 (Z-DEVD-FMK, 20 µM) were used to treat the BMMSCs at 4 hrs before IFN-γ and TNF-α were added. Cell apoptosis were analysis by immunofluorescence staining and FACS^Calibur (Annexin V-PE apoptosis detection kit I) and Western blot analysis for caspase 8, cleaved caspase 8, caspase 3 and cleaved caspase 3.

BMMSCs [2] = experiment: siRNA and inhibitors: IFN-γ/TNF-α-induced BMMSC death; assay type: cell-based, mouse; conditions: siRNA or inhibitor treatment before IFN-γ/TNF-α, toluidine blue staining
Procedure: as §2

Fas = Fas internalization (immunocytochemical staining); assay type: cell-based, mouse; conditions: caspase inhibitor in IFN-γ/TNF-α-treated BMMSCs vs control group
Procedure: as §2
Fas internalization. P1 BMMSCs were seeded to 2-well chamber slide. IFN-γ (50 ng/ml) was added to pre-treat BMMSCs for 24 hours, and then TNF-α (20 ng/ml) was added. At the 0.5, 1, 2, 4 hours after TNF-α was added, the cells were washed by PBS twice, and fixed with 4% PFA for 15 min. After treated by Triton-X 15 min, the cells were blocked with normal serum matched to secondary antibodies, incubated with 1 μg/ml anti-Fas (Santa Cruz) antibody at room temperature for 2 hours, treated with Rhodamin-conjugated secondary antibodies (1:200, Jackson ImmunoResearch). Then the cells were incubated with ([…] (1:40; Invitrogen) at room temperature for 20 min, and were mounted by vectashield mounting medium DAPI (Vector Laboratories).

BMMSCs [3] = experiment: Cell apoptosis and cell survival assay in vitro (toluidine blue, Annexin V); conditions: for BMMSC death / viability: single cytokine, 1-200 ng/ml, three days
Procedure: Cell apoptosis and cell survival assay. 0.5×10^6 BMMSCs were seeded to 6-well culture plate and co-cultured with different doses of recombined IL-4, IL-6, IL-17A, TGF-β1, TNF-α and IFN-γ (0, 10, 20, 50, 100, 200 ng/ml) for 3 days. To measure the cell viability, the total cells were analyzed by using a cell counting kit-8 (Dojindo Molecular Technoloies, Gaithersburg, Md.) according to the manufacture's instruction. And the culture plates with cells were stained with 2% toluidine blue O and 2% paraformaldehyde (Sigma-Aldrich Corporate, St. Louis, Mo.).
For cell apoptosis analysis, the BMMSCs were stained by Annexin V-PE apoptosis detection kit I (BD Bioscience) following manufacture's protocol, and analyzed by FACS^Calibur (BD Bioscience).
IFN-γ and TNF-α synergism for apoptosis. For cell apoptosis staining, the 1×10^4 BMMSCs were seeded onto two chambers slide, IFN-γ (50 ng/ml) and TNF-α (20 ng/ml) were used to treat the BMMSCs for 24 hrs either separately or combined, Annexin V-PE apoptosis detection kit I (BD Bioscience) was used to stain the BMMSCs following manufacture's protocol, and analyzed on microscopy and FACS^Calibur (BD Bioscience). Cell viability was analyzed by using cell counting kit, and culture plates were stained with 2% toluidine blue O and 2% paraformaldehyde.
IFN-γ and TNF-α synergism for apoptosis. 0.5×10^6 BMMSCs were seeded to 6-well culture plate and co-cultured with different doses of TNF-α (0, 5, 50, 100 ng/ml) with or without IFN-γ (50 ng/ml) for I day. Then, the BMMSCs were stained by Annexin V-PE apoptosis detection kit I (BD Bioscience) following manufacture's protocol, and analyzed by FACS^Calibur (BD Bioscience).

BMMSCs [4] = experiment: Osteogenic differentiation assay (alizarin red staining); assay type: cell-based, mouse; conditions: for mineralized nodule formation / osteogenic differentiation of BMMSCs: alizarin red
Procedure: (§3) Osteogenic differentiation assay. BMMSCs were cultured under osteogenic culture condition media containing 2 mM […] (Sigma-Aldrich), 100 μM L-ascorbic acid 2-phosphate and 10 nM dexamethasone (Sigma-Aldrich). Different doses of IFN-γ (50, 200 ng/ml) were added to the osteogenic culture condition media every 3 days. After the osteogenic induction, the cultures were stained with alizarin red. Expressions of Runx2, ALP, and OCN were assayed by Western blot analysis.

[5] = system: BMMSC-mediated bone formation; experiment: BMMSC-mediated bone formation, subcutaneous BMMSC/HA/TCP implantation; assay type: in vivo; conditions: 200 ng cytokine in hydrogel co-implanted with BMMSCs/HA/TCP, immunocompromised mice, 8 weeks post implantation
Procedure: BMMSC-mediated bone formation. Approximately 4.0×10^6 BMMSCs were mixed with hydroxyapatite/tricalcium phosphate (HA/TCP) ceramic particles (40 mg, Zimmer Inc., Warsaw, Ind.) as a carrier and subcutaneously implanted into the dorsal surface of 8-10 weeks old immunocompromised mice or C57BL/6J mice. At eight weeks post-implantation, the implants were harvested, fixed in 4% paraformaldehyde and then decalcified with 5% EDTA (pH 7.4), followed by paraffin embedding. The 6 μm paraffin sections were stained with hematoxylin and eosin (H&E) and analyzed by an NIH Image J. Five fields were selected and newly formed mineralized tissue area in each field was calculated and shown as a percentage to total tissue area.
Cytokines in BMMSC-mediated bone formation. Approximately 4.0×10^6 of littermate-derived or autologous BMMSCs were mixed with HA/TCP ceramic powders (40 mg, Zimmer Inc.), and hydrogel (Glycosan Biosysterms, Salt Lake City, Utah) with 200 ng IFN-γ, TNF-α, IL-4, IL-6 or IL-17A were covered on the surface of the implants as a slow released system. At eight weeks post-implantation, the implants were harvested and newly formed mineralized tissue areas were analyzed. […]
BMMSC-mediated bone formation. Approximately 4.0×10^6 of littermate-derived or autologous BMMSCs were mixed with hydroxyapatite/tricalcium phosphate (HA/TCP) ceramic particles (40 mg, Zimmer Inc., Warsaw, Ind.) as a carrier and subcutaneously implanted into the dorsal surface of 8-10 weeks old immunocompromised mice or C57BL6 mice. When aspirin was used, BMMSCs were treated with 50 μg/ml aspirin for 2 days and mixed with HA/TCP particles to be subcutaneously implanted into immunocompromised mice. When IFN-γ and TNF-α were used in the subcutaneous implants, 200 ng IFN-γ, TNF-α or/and 100 μg aspirin mixed with 250 μl hydrogel as a slow released system and subcutaneously co-implanted to the dorsal surface of 8-10 weeks old immunocompromised mice.
At eight weeks post-implantation, the implants were harvested, fixed in 4% paraformaldehyde and then decalcified with 5% EDTA (pH 7.4), followed by paraffin embedding. The 6 μm paraffin sections were stained with hematoxylin and eosin (H&E) and analyzed by an NIH Image J. Five fields were selected and newly formed mineralized tissue area in each field was calculated and shown as a percentage to total tissue area.

[6] = system: Smad 6, Smad 7, Runx2, ALP, OCN; experiment: Western blot of Smad 6, Smad 7 and osteogenic genes in BMMSCs; assay type: cell-based, mouse
Procedure: as §3, §1

[7] = 200 ng/ml cytokine, osteogenic media, 14 days
[8] = Fas^−/− BMMSCs from lpr mice and Fas knock down BMMSCs by siRNA
[9] = wild type BMMSCs, IFN-γ 50 ng/ml, TNF-α 20 ng/ml, alone or co-stimulated

Molecule: CC[C@H](C)[C@H](NC(=O)OCc1ccccc1)C(=O)N[C@@H](CCC(=O)OC)C(=O)N[C@H](C(=O)N[C@@H](CC(=O)OC)C(=O)CF)[C@@H](C)O [Caspase 8 inhibitor, 2-IETD-FMK] (Cbz-IE(OMe)TD(OMe)-CH2F)
- cleaved caspase 3 in IFN-γ/TNF-α-treated BMMSCs [1]: reduce levels
- cleaved caspase 8 in IFN-γ/TNF-α-treated BMMSCs [1]: reduce levels
- IFN-γ/TNF-α-induced BMMSC death (BMMSCs [2]): rescuing INF-γ/TNF-α-induced cell death
- number of BMMSCs with Fas internalization (Fas): reduced number of Fas internalization

Molecule: COC(=O)C[C@H](NC(=O)[C@H](C)NC(=O)[C@@H](NC(=O)OCc1ccccc1)C(C)C)C(=O)CF [pan caspase inhibitor, Z-VAD (OMe)-FMK] (Cbz-Val-Ala-Asp(OMe)-CH2F)
- number of BMMSCs with Fas internalization (Fas): reduced number of Fas internalization

Molecule: TGF-β1: recombined TGF-β1 cytokine co-cultured with BMMSCs
- BMMSC death / viability (BMMSCs [3]; toluidine blue staining): no effect

Molecule: C/C1=C/C(=O)O[C@@H]2C[C@@H](CC[C@H](C)/C=C\C=C\CC1)O[C@@](O)([C@@H]1CSC(=O)N1)C2 [Lnt A, Latrunculin A]
- cleaved caspase 3 in IFN-γ/TNF-α-treated BMMSCs [1]: significantly reduced
- cleaved caspase 8 in IFN-γ/TNF-α-treated BMMSCs [1]: significantly reduced
- cleaved caspase 3 in IFN-γ/TNF-α-treated BMMSCs ([1]; listed as LntA): inhibition of cleaved caspase 3 and 8
- cleaved caspase 8 in IFN-γ/TNF-α-treated BMMSCs ([1]; listed as LntA): inhibition of cleaved caspase 3 and 8
- IFN-γ/TNF-α-induced BMMSC death (BMMSCs [2]): significantly reduced
- IFN-γ/TNF-α-induced BMMSC death (BMMSCs [2]; listed as LntA): partially rescue

B1: IL-6: Recombinant murine IL-6 purchased from PeproTech (protein, UniProt P08505 25-211, looked up)
Interleukin-6: FPTSQVRRGDFTEDTTPNRPVYTTSQVGGLITHVLWEIVEMRKELCNGNSDCMNNDDALAENNLKLPEIQRNDGCYQTGYNQEICLLKISSGLLEYHSYLEYMKNNLKDNKKDKARVLQRDTETLIHIFNQEVKDLHKIVLPTPISNALLTDKLESQKEWLRTKTIQFILKSLEEFLKVTLRSTRQT
- mineralized nodule formation / osteogenic differentiation of BMMSCs (BMMSCs [4]; [7]): no inhibition effect
- new bone formation in BMMSC implants [5]: a reduction in new bone formation; also recorded: slightly inhibited
- BMMSC death / viability (BMMSCs [3]; toluidine blue staining): no effect

B2: IL-4: Recombinant murine IL-4 purchased from PeproTech (protein, UniProt P07750 21-140, looked up)
Interleukin-4: HIHGCDKNHLREIIGILNEVTGEGTPCTEMDVPNVLTATKNTTESELVCRASKVLRIFYLKHGKTPCLKKNSSVLMELQRLFRAFRCLDSSISCTMNESKSTSLKDFLESLKSIMQMDYS
- mineralized nodule formation / osteogenic differentiation of BMMSCs (BMMSCs [4]; [7]): reduced mineralized nodule formation; also recorded: partial inhibition
- new bone formation in BMMSC implants [5]: a reduction in new bone formation; also recorded: slightly inhibited
- BMMSC death / viability (BMMSCs [3]; toluidine blue staining): no effect

B3: IFN-γ: Recombinant murine IFN-γ purchased from PeproTech (protein, UniProt P01580 23-155, looked up)
Interferon gamma: HGTVIESLESLNNYFNSSGIDVEEKSLFLDIWRNWQKDGDMKILQSQIISFYLRLFEVLKDNQAISNNISVIESHLITTFFSNSKAKKDAFMSIAKFEVNNPQVQRQAFNELIRVVHQLLPESSLRKRKRSRC
- mineralized nodule formation / osteogenic differentiation of BMMSCs (BMMSCs [4]; 50 ng/ml IFN-γ): no significant inhibitive effect; also recorded: no inhibitory effect
- mineralized nodule formation / osteogenic differentiation of BMMSCs (BMMSCs [4]; [7]): significantly inhibited mineralized nodule formation; also recorded: significant reduction in mineralized nodule formation; also recorded: inhibited osteogenic differentiation
- osteogenesis of Fas-deficient BMMSCs (BMMSCs [4]; [8]): failed to block osteogenesis; also recorded: failed to reduce ostoegenic differentiation
- Fas expression [1, 9]: up-regulated expression of Fas; also recorded: activated
- activation of caspase 3 and caspase 8 [1, 9]: no activation of caspase 3 and caspase 8; also recorded: without activating caspase 3 and caspase 8
- new bone formation in BMMSC implants [5]: completely blockage of new bone formation; also recorded: inhibited subcutaneous bone formation; also recorded: reduced BMMSC-mediated bone formation; also recorded: significantly reduced bone formation
- Smad 6 elevation and inhibition of osteogenic genes ([6]; 50 ng/ml IFN-γ): not observed
- Smad 6 expression ([6]; 200 ng/ml IFN-γ): elevated; also recorded: up-regulated expression
- expression of osteogenic genes Runx2, ALP and OCN ([6]; 200 ng/ml IFN-γ): inhibited; also recorded: down-regulated expression
- expression levels of Smad 6 and Runx2 [6, 8]: failed to block osteogenesis and alter expression levels of Smad 6 and Runx2; also recorded: failed to reduce ostoegenic differentiation and alter expression levels of Smad 6 and Runx2
- expression level of Smad 7 ([6]; IFN-γ-treated BMMSCs): not altered
- TNF-α-induced BMMSC apoptosis (BMMSCs [3]; IFN-γ 50 ng/ml added to TNF-α 0, 5, 50, 100 ng/ml, flow cytometric analysis): significantly enhanced TNF-α-induced BMMSC apoptosis
- TNF-α-induced BMMSC apoptosis (BMMSCs [3]; IFN-γ 50 ng/ml added to TNF-α 50-200 ng/ml, toluidine blue staining): synergistically enhanced; also recorded: significantly enhanced BMMSC apoptosis
- TNF-α-induced BMMSC apoptosis (BMMSCs [3]; IFN-γ 50 ng/ml with TNF-α 20 ng/ml, 7AAD/Annexin staining): accelerated; also recorded: enhanced
- BMMSC death (BMMSCs [3]; IFN-γ 1 to 50 ng/ml with TNF-α 50 ng/ml): dose dependent BMMSC death; also recorded: correlated with IFN-γ concentration
- BMMSC death (BMMSCs [3]; IFN-γ 100-200 ng/ml with TNF-α 50 ng/ml): no any BMMSC survived; also recorded: complete BMMSC apoptosis
- BMMSC death / viability (BMMSCs [3]; toluidine blue staining): no effect; also recorded: not able to induce BMMSC apoptosis

B4: IL-17A: Recombinant murine IL-17A purchased from PeproTech (protein, UniProt Q62386 26-158, looked up)
Interleukin-17A: AAIIPQSSACPNTEAKDFLQNVKVNLKVFNSLGAKVSSRRPSDYLNRSTSPWTLHRNEDPDRYPSVIWEAQCRHQRCVNAEGKLDHHMNSVLIQQEILVLKREPESCPFTFRVEKMLVGVGCTCVASIVRQAA
- mineralized nodule formation / osteogenic differentiation of BMMSCs (BMMSCs [4]; [7]): no inhibition effect
- new bone formation in BMMSC implants [5]: no inhibitory effect
- new bone formation in BMMSC implants ([5]; listed as IL-17): no inhibitive effect
- BMMSC death / viability (BMMSCs [3]; toluidine blue staining): no effect
